# Results as given in patent publication US5670477A, “Method to enhance permeability of the blood/brain blood/nerve bariers to therapeutic agents” (Poduslo; Joseph F., priority 1995, dated 1997).
# Where “and” joins values, the source holds several entries; their conditions need not be identical. Equal values may be shown once.
# Tests used:
# [1] = plasma half-life from plasma clearance curves after I.V. bolus; settings: for t1 (plasma half-life): Table 5, n = 6
# Protocol: Animals and Reagents. Male Sprague-Dawley rats (24-weeks-old, 460-500 g) were obtained from Bio Lab (St. Paul) and were used to determine the PS and Vp measurements. All animals were kept for a minimum of 3 days under standard housing conditions and feeding schedules prior to the experiments. […] Insulin (Mr =6000) was obtained as humulin RU-100 from Eli Lily. […] Affinity purified human IgG was obtained from Accurate Chemicals (Mr =150,000). […] Plasma half-lives were determined from plasma clearance curves for all the proteins using the standard exponential decay equation in In Plot Scientific Graphics (Graph Pad Software).
# The experimental protocol employed was based on the methods of Ohno et al. Am. […] Over the next 30 or 60 minutes, serial blood samples were collected from the brachial artery to generate a plasma washout curve.
# [2] = PS and Vp of the blood-nerve barrier, radioiodinated I.V. bolus; format: in vivo, rat (Sprague-Dawley)
# Protocol: (§1) Free radioactive iodine was separated from the radiolabeled conjugates and agents by dialysis against 0.2M NaI.
# (§2) After the final blood sample was collected, the animal was sacrificed, the brain and meninges removed, and the brain dissected into the cortex, caudateputamen (neostriatum), hippocampus, thalamus, brain stem, and cerebellum. The sciatic nerve was also rapidly removed and desheathed. Tissue was lyophilized, and dry weights were determined with a microbalance and converted to respective wet weights with wet weightry weight ratios previously determined for the desheathed rat sciatic nerve and the various brain regions. […] Statistical evaluations were performed using the t-test with significance accepted at the P<0.05 level.
# [3] = PS and Vp of the blood-brain barrier, radioiodinated I.V. bolus; format: in vivo, rat (Sprague-Dawley)
# Protocol: as §1, §2
# [4] = isoelectric focusing (Coomassie blue); format: physicochemical; settings: Coomassie blue stain
# Protocol: Protein samples were solubilized in SDS under reducing conditions with 2-mercaptoethanol followed by electrophoresis and staining with Coomassie blue. Pharmacia low molecular weight calibration kit was used for the protein standards. The 40% Bio-Lyte 3/10 ampholyte from Bio-Rad was used for isoelectric focusing with an acrylamide monomer concentration of 25% T and 3% C. Polymerization time was 15 minutes, with 5 minutes allowed for sample diffusion. Electrophoresis time was 45 minutes with increasing voltage to a maximum voltage of 450 volts for the last 15 minutes. IEF standards were obtained from Bio-Rad and contained nine natural proteins with the isoelectic points ranging from 4.45 to 9.6 and were visualized with Coomassie blue.
# [5] = system: choline acetyltransferase (ChAT); assay: choline acetyltransferase (ChAT) activity in brain regions after parenteral administration; format: in vivo, mouse (BALB/cJ)
# Protocol: Adult BALB/cJ mice were used. The injection site was alternated on a daily basis between I.M. (thigh) and I.V. injection (tail vein), and the vehicle consisted of 1.5 mg/ml of BSA in 0.9% NaCl. The amount of NGF or PUT-NGF injected was 15 μg/day/animal for a duration of 14 days. Three groups of animals (n=7) were injected with either vehicle alone, NGF, and PUT-NGF. At the end of the experiment, the brains were removed and dissected into five regions which included the septum, hippocampus, nucleus basalis (substantia innominata), caudate-putamen (neostriatum), and cortex and stored at -70° C. The septum was dissected from the hippocampus at the fornix and continued into the basal forebrain.
# Subsequently, a radiochemical assay using [1-^14 C] acetyl-CoA was performed according to the method of Fonnum. Fonnum, "A rapid radiochemical method for the determination of choline acetyltransferase", J. Neurochem., 24, 407 (1975). Data were expressed as cpm/μg protein and are given as mean ± SEM. Protein concentration was determined by the BCA procedure (Smith et al., "Measurement of protein using bicinchoninic acid", Anal. Biochem., 150, 76 (1985)) with the Pierce assay kit using bovine serum albumin as a standard. Statistical analysis was by the unpaired t-test (two-tailed) with significance accepted as P<0.05.
# [6] = 15 μg/day/animal, 14 days, x ± SEM, n = 7
Molecule,PS of the BNB ([2]; nerve / endoneurium),"PS of the BNB ([2]; nerve, x ± SEM)","Vp (residual plasma volume) of the BNB ([2]; nerve, x ± SEM)","PS of the BBB ([3]; brain stem, x ± SEM)","Vp of the BBB ([3]; brain stem, x ± SEM)","PS of the BBB ([3]; caudate-putamen, x ± SEM)","Vp of the BBB ([3]; caudate-putamen, x ± SEM)","PS of the BBB ([3]; cerebellum, x ± SEM)","Vp of the BBB ([3]; cerebellum, x ± SEM)","PS of the BBB ([3]; cortex, x ± SEM)","Vp of the BBB ([3]; cortex, x ± SEM)","Vp of the BBB ([3]; hippocampus, x ± SEM)","PS of the BBB ([3]; thalamus, x ± SEM)",t1 (plasma half-life) ([1]; x ± SEM) [min],pI (isoelectric point) [4],"PS of the BBB ([3]; hippocampus, x ± SEM)","Vp of the BBB ([3]; thalamus, x ± SEM)",other results
INS: Insulin (Mr =6000) obtained as humulin RU-100 from Eli Lily [reference compound],3.32e-05 mL/g/s,33.19 ± 2.05 ml/g/sec × 10^6,5.05 ± 0.87 µL/g,22.62 ± 3.35 ml/sec × 10^6,12.35 ± 0.99 µL/g,16.88 ± 1.79 ml/sec × 10^6,6.08 ± 0.30 µL/g,20.12 ± 2.78 ml/sec × 10^6,10.56 ± 0.96 µL/g,15.78 ± 2.45 ml/sec × 10^6,6.44 ± 0.49 µL/g,7.04 ± 0.68 µL/g,18.42 ± 2.41 ml/sec × 10^6,–,–,–,–,"t1/2 (plasma half-life) ([1]; Table 4, x ± SEM, n = 5): 1.18 ± 0.09 min"
"SOD: superoxide dismutase isolated from bovine erythrocytes, monomeric molecular weight 16,250 daltons",2.24 10^-6 mL/g/sec,1.79 ± 0.12 ml/g/sec × 10^6 and 2.24 ± 0.22 ml/g/sec × 10^6,1.87 ± 0.10 µL/g and 2.63 ± 0.22 µL/g,3.19 ± 0.13 ml/g/sec × 10^6 and 3.13 ± 0.14 ml/g/sec × 10^6,13.77 ± 2.10 µL/g and 16.26 ± 1.22 µL/g,1.52 ± 0.07 ml/g/sec × 10^6 and 1.78 ± 0.11 ml/g/sec × 10^6,5.62 ± 0.23 µL/g and 5.76 ± 0.40 µL/g,2.94 ± 0.14 ml/g/sec × 10^6 and 2.69 ± 0.11 ml/g/sec × 10^6,10.20 ± 0.89 µL/g and 14.61 ± 1.09 µL/g,1.81 ± 0.06 ml/g/sec × 10^6 and 1.80 ± 0.09 ml/g/sec × 10^6,6.13 ± 0.34 µL/g and 5.77 ± 0.34 µL/g,7.94 ± 0.25 µL/g and 7.26 ± 0.77 µL/g,2.61 ± 0.15 ml/g/sec × 10^6 and 2.71 ± 0.20 ml/g/sec × 10^6,3.64 ± 0.21,4.95,1.98 ± 0.08 ml/g/sec × 10^6 and 2.15 ± 0.01 ml/g/sec × 10^6,9.73 ± 0.43 µL/g and 12.83 ± 1.97 µL/g,"PS of the BNB ([2]; nerve): 1.79 ± 0.12 10^-6 mL/g/sec; PS of the BNB relative to native albumin ([2]; nerve, albumin compared from Poduslo et al. 1994): approximately 22 fold; PS of the BBB ([3]; brain stem): 3.13e-06 mL/g/s; PS of the BBB relative to native albumin ([3]; brain stem): 54 fold; PS of the BBB ([3]; caudate-putamen): approximately 1.8 ×10^-6 ml/sec; PS of the BBB ([3]; cortex): approximately 1.8 ×10^-6 ml/sec; PS of the BBB relative to native albumin ([3]; cortex): 12 fold"
SPD-SOD: SOD modified with spermidine using water-soluble carbodiimide at pH 4.7,2.41e-05 mL/g/s,24.1 ± 1.23 ml/g/sec × 10^6,3.03 ± 0.35 µL/g,36.85 ± 1.70 ml/g/sec × 10^6,13.94 ± 1.29 µL/g,32.65 ± 2.03 ml/g/sec × 10^6,8.23 ± 0.40 µL/g,37.28 ± 1.01 ml/g/sec × 10^6,12.59 ± 0.90 µL/g,25.00 ± 0.90 ml/g/sec × 10^6,7.10 ± 0.31 µL/g,7.73 ± 0.58 µL/g,34.35 ± 1.42 ml/g/sec × 10^6,0.75 ± 0.05,–,28.75 ± 1.39 ml/g/sec × 10^6,11.23 ± 0.63 µL/g,"decrease of plasma half-life versus native protein ([1]; fold less than native protein): 4.9 fold; PS of the BNB, RI vs. native protein ([2]; nerve): 10.8; PS of the BNB, relative increase vs. native protein ([2]; nerve): 10.8 fold; Vp of the BNB, RI vs. native protein ([2]; nerve): 1.2; PS of the BBB, RI vs. native protein ([3]; brain stem): 11.8; Vp of the BBB, RI vs. native protein ([3]; brain stem): 1.0; PS of the BBB, RI vs. native protein ([3]; caudate-putamen): 18.3; Vp of the BBB, RI vs. native protein ([3]; caudate-putamen): 1.4; PS of the BBB, RI vs. native protein ([3]; cerebellum): 13.9; Vp of the BBB, RI vs. native protein ([3]; cerebellum): 1.2; PS of the BBB, RI vs. native protein ([3]; cortex): 13.9; Vp of the BBB, RI vs. native protein ([3]; cortex): 1.2; PS of the BBB, RI vs. native protein ([3]; hippocampus): 13.4; Vp of the BBB, RI vs. native protein ([3]; hippocampus): 1.1; PS of the BBB, RI vs. native protein ([3]; thalamus): 12.7; Vp of the BBB, RI vs. native protein ([3]; thalamus): 1.2"
"NGF: Ultrapure 2.5S nerve growth factor (printed 2.55 NGF) from Harlan Bioproducts (protein, UniProt P01139 122-241, looked up) Beta-nerve growth factor: SSTHPVFHMGEFSVCDSVSVWVGDKTTATDIKGKEVTVLAEVNINNSVFRQYFFETKCRASNPVESGCRGIDSKHWNSYCTTTHTFVKALTTDEKQAAWRFIRIDTACVCVLSRKATRRG",–,1.74 ± 0.15 ml/g/sec × 10^6,1.53 ± 0.12 µL/g,3.38 ± 0.09 ml/g/sec × 10^6,16.60 ± 1.01 µL/g,1.64 ± 0.04 ml/g/sec × 10^6,5.78 ± 0.42 µL/g,2.93 ± 0.10 ml/g/sec × 10^6,11.54 ± 0.71 µL/g,1.91 ± 0.07 ml/g/sec × 10^6,7.19 ± 0.20 µL/g,8.56 ± 0.21 µL/g,2.79 ± 0.09 ml/g/sec × 10^6,–,major band with an isoelectric point less than cytochrome c,2.30 ± 0.10 ml/g/sec × 10^6,11.65 ± 0.81 µL/g,"ChAT activity, caudate-putamen [5, 6]: 559 ± 47 cpm/μg protein; ChAT activity, cortex [5, 6]: 294 ± 9 cpm/μg protein; ChAT activity, hippocampus [5, 6]: 236 ± 17 cpm/μg protein; ChAT activity, nucleus basalis [5, 6]: 109 ± 15 cpm/μg protein; ChAT activity, septum [5, 6]: 443 ± 65 cpm/μg protein; ChAT activity versus comparator, in words ([5]; NGF vs vehicle: five brain regions, PUT-NGF vs NGF: hippocampus, caudate-putamen, cortex): no significant difference; ChAT activity, NGF vs. Vehicle % Increase ([5]; caudate-putamen): 18.4%; ChAT activity, NGF vs. Vehicle % Increase ([5]; cortex): 4.6%; ChAT activity, NGF vs. Vehicle % Increase ([5]; hippocampus): 0.4%; ChAT activity, NGF vs. Vehicle % Increase ([5]; nucleus basalis): 12.4%; ChAT activity, NGF vs. Vehicle % Increase ([5]; septum): 0.2%"
